Experimental findings from the DeepSol protein solubility set are described below.

A short description of the data set: soluble on expression in E. coli; label from the status in PepcDB or PDB records.
For the sequence “MSLSRPLLFALTALSLTAASLAHAADKKAADKPAPSAVSKADKALHDKFLTLDTHLDTPAHFGRPGWDIADHHEVEHDFSQVDLPRMNQGGLDGGFFVVYIGQGELTEKGYTYARDYALHRTIEIREMLAANPDTFEMALTSDDARRIAKAGKKFAFVSMENSWPVGEDLSLVETFYKEGLRMAGPVHFRNNQLADSSTDPKGKIWNGYSPLGLRWLAEANRLGIVIDVSHASDDVVDQSVALSKAPIIASHSGPKAVYDHPRNLDDARLKKIADAGGAICINSIYLTDTTPSPERKAALEALGRAPDMKTATPEAVKAYADKRAAIDKAHPAARGDFDLYMKSMLHVLKVAGPKGVCVGADWDGGGGMDGFEDITDLPKITARLKAEGYSDADIEAIWSGNVLRIVDAAQAYAKSVTKEGHHHHHH”, the “soluble on expression in E. coli” value is reported as “soluble”.
As to “MAHHHHHHMGQDQSRAKACQLGQAETGGTDRSVSAGSASAAPWEAPVSLAGVEGFQVVRLLPDSPAHKAGLIPFFDIVTALDKVLLESEGKAALSFFKSYVANHRDQPVCFTTFNLYSRTYRDVYCVPSDEWGGGGLLGCSIEWTRADACPERCVHVVDVLEGSPAACSTELQANRDYIIGMQTVQETLITLIKSQKDFYCRLEAWHEEQRWALERKQFFPNERVEVPHVLLFLVYNSESNTIEEVEVEMGTNPEAAVGISVATGLLHIIPSVATADLAVGASLPVMSKFASVGHSVVTPTRAQQQEHQLLQDVSLTPAVGAAPQPREQSQESTGSAQPLPSLPLPQEAHARCAVVDSPEVHTMTNPHEPPMNSCPQPCPPRPQLQQQLTEAALYSMPSLASFNVAPPPRHDAAGGTAAAAVEMGQKPFNPFAEEASPDYDVLEGAPLAHEGVMAAEHHLGQHAPTMEQPYSSSYPPLSSQSPPLSGSLPAQMNGSHNPATALPSYSAPPPPPQQLHVTTMPTFSSQRMPPPLQFPVFPGAAAAKRAPA”, the “soluble on expression in E. coli” value is “not soluble”.
Take “MGSDKIHHHHHHWQVTGSKTTLDGVEAARMSGIESYPLRLEPELVCEADDLDALLDVDALVITLPARRSGPGEDFYLQAMQELVDSALAYRIPRIIFTSSTSVYGDAQGVVKENTPRNPVTASGRTLKELEDWLHNLPGTSVDILRLAGLVGPGRHPGRFFAGKTAPDGQHGVNLVHLEDVVGAITLLLQAPKGGHIYNICAPAHPARNVFYPQMTRLLGMAPPHFRDAPDNGKGKIIDGSRICNELGFEYQYPDPLVMPME”: the “soluble on expression in E. coli” value is on record as “not soluble”.
For “MGSDKIHHHHHHSCDNKGDYWGAMESSKATLTLERICDMATLSQDSVELLSNILGMNTEELYRTDVVMIGKVTSEETGFYQYPRFLIAKDREMKEVLTEAYVHRDTEGTFYAFLESNMLPVGETYYCAMVDYNYGYNGRPGLLDHVLGGNTRGERYSEVKPFRLSGLPRLVVHDAHFTGYSFYLSAEVRFKSNGGIIEQGACYSSTKRIPTVDDQKTLARETRNYDYSFLEVEVTDLLPNTHYYIRPYVTTEEGTGYGPVVEFTTEPGTEPIIDYFTMYIDTDRSVNLYATFYIDNYQITHYGYSYGIYSPETGTVTDEQKIEVPLEDNHGQQLSKVITGLRPGILYAFRVYAENGVGVTYSGYQTVKIPVE”, the “soluble on expression in E. coli” value is “not soluble”.
For “MSLRGGETLEYDPDVLDENVEIEVGDVVEIKKFEKTEVYVSGYVSRPGVYEISPKENVTLEKLLSMAGGIKGTLEEVDSIVVTRDGSVITLSPNNLDFSVKPGDVVNVKEFVPKKAYVLGYVRNPGLYTFGKNEAFTLRNLIAKAGGFVDEGQVVSVKVAGKEYSEGHHHHHH”, the “soluble on expression in E. coli” value was “soluble”.
For “MGSDKIHHHHHHMGHYEHKTKEELLEIVCKLEKKVEGLSSELDSLKKGRFRERYSTRILDALPDMLTVFDHNANIVELASSPTTNHVEGTTSDSIINSNVKDIVPEEAYESVRHNMDKVIHTGKSSTAEHSLMLDGVLHHYENRIFPLDDQYLLCMCRDVSQETEMAKINETQRSEIVRLNSLMNDILNNIPVYLFVKDTGNDFRYLYWNKAFAEHSGISVQRAVGSTDADIFPDKKDAEHFREDDLKVMKLGRIEYLENYTTMSGEVRTVTTMKTVVPSGGQHPYIIGVSWDVTEIKKTEKELIAARIKAEEADRMKSSFLANMSHEIRTPLNAIVGFSKLIIEADNECEKRQYADIVEHNSTVLLNLFNDILDLSALEAGSLELSYHPVRLKDICLQLYELHVKSVKPEVRLVLDEVDSQLCIQGDWERISQVLVNLITNAIKFTSVGEIHFGFQKKADMVQFYMSDTGKGIPAERVATIFQRFGKIDDFVQGTGLGLTICRMLVEKMGGRIWVRSKQGEGTVFYFTLPMAK”, the “soluble on expression in E. coli” value is on record as “not soluble”.
On to “MAHHHHHHMHRSLLRCALPGEPMLESYRSGVLRCLRCHLGAMRPDFPVGSAATEVAALASTATTPLTCSRRAFRQQGAAHPNTPDATEAAELEKDWQALKTYGMIGGFALLCVATLWYGSRQAKQRYFGAEGSARVSVETRGRPALGGPFVLVNTKGEPVSQAEFLGSWAFFYFGFTHCPEICPVELNRMSHVVDAVRAARPQERIAPLFVSCDPRRDSLEAIDEYLSVFHPDFIGLVGTPKQVNDACRSYRIYYSIPTDEDAAQEDYLIDHSIAIFLFDPQGRFVDFFGNRYDEREITEKVLHYMSEYAKDPTWTNW”, for which the “soluble on expression in E. coli” value was “not soluble”.
With “MLTPTPDSSPRSTSSPSQSKNGSFTPRTANILKPLMSPPSREEIMATLLDHD”, the “soluble on expression in E. coli” value is recorded as “soluble”.
As to “MTYGYPKKWKENMTSGQVIAAELRLGIVSGEIESHIQLSENQVAQQFNVSRSPVRDAFKLLQTDQLIQLERMGAQVLPFGDQEKKEMYDLRLMLESFAFSKLSGTDTQHIIKEMKKQLEMMKVAVQFEDAEAFTQHDFEFHEVMIQATNHQYLKVFWNHLKPVMESLILISMRQRMANDPKDFERIHKNHQVFIDAVENDDASILRKAFHLNFDDVGENIEAFWLR”, the “soluble on expression in E. coli” value is on record as “not soluble”.
Take “MGSDKIHHHHHHMKKNIIILGLISLLAVSCGDDFLTTHPGDSVSTDLALSTEQDIDNAVNGLYDLMSSYGYYGGTMFFYGDMKGDDMQSSYNSGRTCNRCYLYDHRSTSLNAGYLWGRPFYIIRNAWNVINAIDDGKVQGSEQRLKELKGEAMTIMALCQFDLTRCFGYPYTKDKGAGWGAPIVDHAITLDENPPRSTVAKDYEFIISTLEEAIPLMSTSKNNSRMNAYAARALLSRIYLYHDDNEKAFQMASNLIEEVEGNGMYRLYTRDEYVPAWDLKNTFGTESLFEIANSTDDNGGRSSLAYLMHWNGYREIFATQKFVDELLSDPEDIRCLLLEKNVYNKNDVWWLKKWPGTDATTPSFENNYVIFRLSEVYLNAAEAGVKIGGASAVKGLNYLNAIVQRANPAKEVTAAEYTLDRVLEERSKELIGEGHRFFDMLRNGKTIVRKGGYHLPGIVEEIDWDYYKCVLPIPTDQFTFSPDMEQNPGYTKN”: the “soluble on expression in E. coli” value is listed as “not soluble”.
The value for “MSLTNTNAVELVKEAIDRGAEIILVKVDSKKYVKMSLELVKHFTEFAEGIFVTLNRPYFSLKKMLLKEGVDISKLYFIDCITLQLGGQVIDEERCFYLTSPDPVQLQVTIERAMDLVTVNNRFIYLDSLSTISLYKSFETLVKFLRHLTGKMRLRGFVGTIFTIEKEMDESYYSQISLMVDEVIEVDEGHHHHHH” was “soluble”; that for “MTPTTTPVSNPDALSTGTQDVHTLKGTLQRLAPGTPLRDGLDRIVRGHTGALIVIGDDENVSSICDGGFEFDVSFAATRLRELCKMDGAVILSSDLERIKRANVQLLPSPTWPTQESGTRHRSAERTALHTGVPVIAVSESQNTITLYVEGKSHMLEQPAALLNRANQALGTMERYRDRLDQVNNRLHLAELHSYVTVIDVVSVIQREEMLRRVGEIIDGDVLELGKDAKEIQIQLSELRGDNDRERESIIADYLVTDGIPADEEIHAALEAISHLDDKALLNPANIARVLGLPPTEEALDEPVTPRGYRTLNRIPRVQKFLMDKLIVEFGNLDALLNASVEDLSAVDGVGSLWARHITDGLGRLS” was “not soluble”.
As to “MAHHHHHHMGDKVEYGTSTVKSLGDTCRLVRALQGSTDPRLVSINSLLEGVVKSAQSLVKGTDSQKRFNMEFAEFCGVALMGLPDLEDAVDDLRVQENCANAAVNDQDDFDGISPAIFMREIIGYVVSRNTNVGAQYLEHIGRSAMAKFAGQESSEVTPKRLKSGMNDERHVQSVARKKQRTRPVAGKMGRAPTDDKSGVAATGRVFGVDGDEPKQRYKQSMPKGPPMLSRWVKPWTLLNQRVQGIILEHASNENTRRPPVCNYPPGKRSNITPFDICTAPSGPEMLNLWHARESMTSSSVGHCDPVGVAFDETALDHDSKGSEPSFFPSGDKKVCAFVSSELMANLVRYGVSSLEAPFKGAK”, the “soluble on expression in E. coli” value is recorded as “not soluble”.
For “MNSVLSNIEKLDTYILRRNEYVAESKDEPNKLNTSRKLEVTTKKNQSNNKKRPPPINKARKSLPSIFRRAEENKDSAQIITPTGSKIIGSPLYKRSKSDSFFDHAFNFDKNLGKGSFGEVVAATCRSTSKKFAIKKIPFSKLSKDQYREAYGHMNIPCHPNIVRFHQAWIDKQILHIQLEMCDKSLAAYCHGIDWLEDKELWNVFLDILQGLGHLHNNFMLHNDIKPDNIFMTKNKVCKLGDFGLISDMRSEPINNSSNKHYQSEGDGKYCSKEAINGTLSIFSDIFSFGISILEVGTNIHLPSYGTGWEPIRKWEIPEEILEPMSDELRELVKQMMDKAPTRRPTCSELMKNHVVKEKLRIRKQEVEHIPSESQFQPISYLTTESPLGSRESSCSSIDFLDHFENAEKKTPFVSKLNFDLEDDEDEYEVFSPPRTPVKKSRYQQTMPEVSPPRKIQKLFQRKNLFDE”, the “soluble on expression in E. coli” value is listed as “not soluble”.
The value for “VGPEAYGEASHSHSPASGRYIQQMLDQRCQEIAAELCQSGLRKMCVPSSRIVARNAVGITHQNTLQWRCFDTASLLESNQENNGVNCVDDCGHTIPCPGGVHRQNSNHATRHEILSKLVEEGVQRFCSPYQASANKYCNDKFPGTIARRSKGFGNNVEVAWRCYEKASLLYSVYAECASNCGTTWYCPGGRRGTSTELDKRHYTEEEGIRQAIGSVDSPCSEVEVCLPKDENPPLCLDESGQISRT” was “soluble”; that for “MSSNFRHQLLSLSLLVGIAAPWAAFAQAPISSVGSGSVEDRVTQLERISNAHSQLLTQLQQQLSDNQSDIDSLRGQIQENQYQLNQVVERQKQILLQIDSLSSGGAAAQSTSGDQSGAAASTTPTADAGTANAGAPVKSGNANTDYNAAIALVQDKSRQDDAMVAFQNFIKNYPDSTYLPNANYWLGQLNYNKGKKDDAAYYFASVVKNYPKSPKAADAMFKVGVIMQDKGDTAKAKAVYQQVISKYPGTDGAKQAQKRLNAM” was “soluble”; that for “MGSDKIHHHHHHMPLPENSVVEKNILNPEAVAEALERAMNLANPQTTHAAIAVPTSTVIHKTIEMDADMSDDEREVQIRVDAEQYIPFPLDEVSLDFEVLPDRLANPNRVNVLLVATRTENVETRVEVLELADLNPKLADVESYAVERAFSVFADSLPMGANTIGILDIGHTMTTLSVMQNGKIIYTREQVFGGKQLTLEIQSRYGLSLEEASRAKKDRSLPDDYEIEVLDPFLDAVVQQAARSLQFFFSSSQFNEIDHILLAGGNANIPGLAKLLQQKLGYRVTIANPFLQMGFSPQVDVQKIENDASSLMVACGLALRSFD” was “not soluble”.
The value for “SLQVDASGHQILLNYRKERSLQEFVPQVSLTEVLTGKINANTVKNKIVLIGTTAESFEDYSFTPNITNQGAIRKYQVLSLQAQMISQLLSAALDGRSLIWAWSVWQETIWIWGWSLTGSLLAWYIR” was “not soluble”; that for “MLERHDRLETLRKLKELQERIAELAYLLTGEEPAAWTPRVDLLETEEHYVLLVDLPGVRPEDLELLEEGQRVTLAGVRHPLPGTYLLEERPMGTFRRTLDLPGPIEEGTAQATLRNGVLEVRFRKRPATALPLKEA” was “soluble”.
